Test results reported in the supplement of paper PMC12636428.

System: Saccharomyces cerevisiae
Assay: transcriptional activation domain activity (GFP:mCherry ratio, weighted mean of sorted bins, harmonized to initial dataset scale) (arbitrary fluorescence ratio units); higher = stronger transcriptional activation
Settings: beta-estradiol 1 µM; induction time 4 h
Method: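 53-aa protein tiles (fungal proteins plus yeast TF control tiles) fused C-terminally to a DBD-estrogen-binding domain-mCherry synthetic TF, integrated in S. cerevisiae (URA3 locus) with a GFP reporter. Cells were induced with 1 uM beta-estradiol for 4 h at 30 C, FACS-sorted into 8 bins by GFP:mCherry ratio and barcodes sequenced. Activity is the read-weighted mean bin fluorescence (GFP:mCherry), averaged over barcodes (median 12); tiles under 50 reads were discarded. New active-learning values were harmonized by linear fit onto the scale of the initial (Hummel et al.) dataset. The assay saturates at low and high signal.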

| Sequence | transcriptional activation domain activity |
| --- | --- |
| WRKQWLVPLLIRYFNQMVLTLIRWFPLRCLYYTLIKGQAYEGLNKEYDADGIH | 58300 |
| DNMDSDFLSRTPNYNAFSLEATSHNPADNANELGSQSNRETNSPSVFYPQANT | 22500 |
| AEDADADGRTQRQGKGAGASSGSERRTHKARSRKSAKLDSKEKDGEKDKEWKG | 23600 |
| TGAPIRLVAEKAEEQEQDQEGEAPAQDQAQDQEQTQDQGQARAQAGTKAQATK | 8780 |
| KLAKKEPKAAAKPKTEKAKVEKKPAAKKATTTKAKPAAPKAKAAAKPKAATTK | 23800 |
| QWIHQYIAVPSGTPRDKCHLRQFCYMGLEQWGVGFIIGLLPLLLSVSLCIFLV | 60400 |
| GQTHVHFFPSLSHFYPLFFSFYNVLYPPCLYVRICPISLLLLLWWCFYLTFFC | 44100 |
| MFFKMMTTQDIQFVNVCFKLHSTLPMLFIGGIFLIIHCTSSSAIKGRICTAAF | 34100 |
| YGVPIPQNSPATTTNLSGSVDEPQYQRRNIDFVRYDEEYVYHEDMDDELTMLH | 28400 |
| VLGSEGSNLRCTRYLVVGGPPAMGREVQRFRECECTVMRMTVLIRGAVMWGCR | 57500 |
| NLLYQLGVFVARSSTPFIRLHNLYLPSCLQILNLLLLVSQSLYWWIPSVYLVF | 76500 |
| DNMHVPGRFKDPNFLFYIQTMISSYALPFVRKAAILMHVRYGVELPSIPFECV | 75400 |
| EGLGTAWLFKKEDLLCKSAYEIATISNSWLCGVQGTLLMYLVLVLLCLSFFLI | 30800 |
| IWRCTLFLLYGGHFEAALTCIRASASIGTFRDINVACGRNVAFFLSVLIEKKR | 63000 |
| VLKALWSFAYTFGLFIFCNGSIYYFVARIFGSYYRVLDSPIVGFRWSNIHLFL | 57100 |
| MPHLCVSVCLFLVLVMKRWLHVCRDIICRSLSWPEYEFSHFCSLIMRVLMLLL | 76300 |
| RGINAPLIQIPLYNNDPWIQTTISDDYLLPPGWFDILFPTNFDLLKDIYLTAF | 60600 |
| MIHCMLLVGSTCPFFSLFLIAYFYDAIYDLAQFDMWSLLLCIYWDISPIFLFP | 48100 |
| GGEDALGRAAEEEGVRSGGLSSEQQDREEARGEARDRQHRVACFGGRRECAGG | 48500 |
| ADAAGEPAQANGESKSAKRRKQKKAAAAAKAAGATNADGTPAAAAEKPARAQR | 17100 |
| EYAEWLLQPEQNNGTWVADVLWPAIDLDLEWIALNWNQSSWDLWWPPVWAGSF | 107000 |
| MQIQALAFPSYCQNTLFMPCTSIVCLDFFFLLHIFPLVPRSLDVFFLFLLVHL | 76400 |
| SASKPAAVTDADEAARPVKKPARPSPGDEDKPEKKEESSRKIETQQPKKAAAQ | 25500 |
| RSDRDRRRKQSPESRGRRHRSRSKDARREKRKRADSEGEQSARRSRPSEHHRR | 19100 |
| LMLCAGHGILIALVEQSGIDIKPILVFCLITYTLCQIGMCYSCYLYDFILLFF | 50100 |
| ALNAIIEGFQLFRSAFQPASLSVSMVHSVSVLVNWPSPYFTSLLLPGYDIGFP | 62800 |
| KAVAALRRQTGQEAVEVEVAPIRQKRRETVGATVTTARPVAGSQTGPALTQVT | 14800 |

| Sequence | transcriptional activation domain activity |
| --- | --- |
| RLPNNANSTTGLNDNDYNLDDTNNDNTNSMQSILEDFVSSEEALKFMPDAGRD | 30400 |
| NAIISNLMLGMLLFCGSLYLLITFLPILSSDCPYSTPMSVPWWRILRALGAVG | 37900 |
| NGFCYSAITGGSIVLLLPGWYVFFYSLELQSRSMLCGSIRLGWAIIYAFFLGF | 58900 |
| MRTHVLSMHSALLLLHCLRAVWLAPVSRPRQCLTSPAFCSSTRLAIILGGVRH | 77900 |
| MYMSTIRSGHLQPVPSSSKLILFIFLFLFSLISLFFLVGSFPPFFLSYLWILC | 31200 |
| RLRKDVGPFSPDDIQKPSLTWIHVRRNNLLLMMAPVRSYTWKAAQTLGEIFGA | 28000 |
| PDELVKSASRLEIDDPSPVTADGAKKSKNQLKKEQKARQLQLQRSLGPASGAP | < 6570 |
| MFYGFGSLSYGKGVTEFFFFSFFFFVASFISCFLFNFFSSAQFCCLFFHFVLI | 58300 |
| ATLHYISPYCPRFGRYHILRMLHCIGGLHVAANLWCYYWVWVYVLNEIILPQW | 66400 |
| IDGIDLEEAGNFREIETYYRDYLSPIDRLSIISVQENNVIFQDKGNVSRENIE | 73100 |
| RKSTSGKTEKADTEKPEKKKPANEGNTAAGTKGTGERKPAVKAGGGVKGRPSG | 17800 |
| VVTRWILFIVPMLGIVWIPGILSLTTFPHATVWGVKLIWWSIWLSVVWGGWWV | 38300 |
| MSRVRLAPEGHMFFFVLIVFIFCFFCLFLFLAGDLKGGWLFFLRFGMGWVFLG | 21600 |
| MSWLVSISFMFYTFILPFYYYYKHSTTLFIYTYIYISLYIPIWFVYNHPYHLL | 43000 |
| SADDSAGEARQREKSEESGTRRSRKSHDRESKEGAEGADEAESWERSSKKKSR | 29600 |
| ITGTAYLGKFLRNTLGYDLEVFHAELMVKADIFSLNPHEIMNLIVILFHLMLY | 57900 |
| DKPIAAKKPSAQRKRKVKLESDADSSGDDQPIVKKPAAKKPRASKAKKEEPAS | 23100 |
| MNDCSAGCAGGQFPVGQDGLICIVEFNTITCVSTGSIVFLMLHSWLYFVLLIF | 71600 |
| PKWHRYEDYEALFRVRNLCFPLILSGDIQLTLEYWWSIFSTSILRRPIFELNI | 69600 |
| GIHETLSFYFVFVCFLYGLRSMALMIGLTGALFLLFMDMLVFGMATAVLIDYG | 50700 |
| ENGRNLLRELLIFVAAWDLREEELYFKFMVKILESILVNGYLPYAYHAFREYD | 62000 |
| RVVYVSCNVHTQARDVGVLVRGEVEDVAANSNNTNMSTTTKNKTGGGVRYEIE | 23600 |
| MLAYTHFLIMLDRDILNICCVIYFYCLVFICLLLTFLLLIAPLNTCVGLCWKG | 54400 |
| ARAYISLCWRMIVTKGLHRPPVSSVVDKALRKRQLKLLMVLYYNDFTNAVYSG | 52300 |
| EKAKPAEEPKPAAEPAPAEEKAAEPETQPESKPAEELSSPTEEPAPIEEAKPA | 15800 |
| LIYQKLPRVLKRPGWNFHPAVALTFSILLFAAYPLICFFNILIAWSNEVSFHN | 54300 |
| NGEDAAPAAEPAGTSTADAVGGTTALPAAYRLKAFISHKGPSVHSGHYVVHIR | 52700 |

| Sequence | transcriptional activation domain activity |
| --- | --- |
| FDTRGAIYCSRPRMVMMCELMGWDAAFVLMPYTPRWRRHRRLFHQHFNEAVAN | 80200 |
| FFLRIAVEVLHIRIIWAIILVNVLFGFSYFMCAVLQCVPIPYIWKKYAANPPP | 43200 |
| MSLFFLLFPHVFAFILFLLSSFYSLSPIHSVFYPSFSLFPLSSLFYLTFPFSL | 59400 |
| DAFADGDGDATVTEGETSEKPKKARKKRAKKDTGEDDAEAKPKKKAKRKAKAA | 14500 |
| SQKKHCELCKTPFRFTKLYSPSMPKTLPVYVFLSHVAKYLLRNLLVEARAMLV | 42900 |
| MLHVVGGYSRVRTWVIFLFVFRIGGRAYIDWIGFFFMGFLHWIRFIVVMVLFL | 41800 |
| KQTAAQDSDEEGGGGKLKSKKEKEKEKKEREKQRKKEQAAKKKTAAPAPAKPE | 24400 |
| GGEGALTVAASARERERERERDREEREKREKRERARESQAVKRKKRPAEKEPP | 38000 |
| SILLMQHNLYHFIHFFKKIRQVIEKGEYPSFKQELIQNLGQTGWWKFLNAKSL | 59500 |
| RLVYLMAKNKFGADAQQEFIGDYFRTDSATFRDVRVLFGLLSRSWFGRVWCIQ | 52200 |
| MTNQPTTQDGPSPVKHRACDECRSRKLACSKEPDGCSRCKKEGIVCHYSAQKQ | 28400 |
| RLRLSCYIMMCVVTSYSTWAIVSGYFTCVPVAKFWDPTIKGHCLNFQALWFFN | 61900 |
| SFNDTSFLNMEDPIRNEFSFDNGDRAVTDLPRSAHFLSDTGLEGINFSGLNDS | 55200 |
| MFKGTLLLVFFHYGWALFLDYCLWYIMISLCFWYRVCLPVLLLGFHVCCHLWC | 48500 |
| FLYTLHIYDGQEGYHFLFNSFGNGSEWLQWSDGEQWALLYAQNYTMIIWVWYM | 15000 |
| AWKRVTALLGPVVRLKADIVEIFERVMIIYFRSLDLEEKPITAGILGTVNKWN | 48300 |
| MSLLMRVLCFCALGRPDLEDHWKSLQSEKAFEIVRTRVSSILDNIVTTAGVLL | 60400 |
| MHTSRAAWIHSKPADKAEAVAPHPHIAESGVGHSSHVGTHPKLSGDPNSPWRE | 45900 |
| MMFETHFWSLSSLLLLFFLSFFFFLYIWGSRFFFFQFPFPFPFPFPFFFSIFF | 53800 |
| MLFGRSFMGTYFISGKHVFFFFLVFFNSLFLFYLLTSTFISICITGSLFFFVL | 30400 |
| RGLVLCLCLCITLKTAFHMIAVYQPLHPLFTSIDLGHLQPQPFCKLGMILGIM | 65900 |
| VISTLYHGPQIWVPILVSTGLLAIFAEILPQYFIPRQAISWGYYCWPLIWGCM | 36700 |
| FFFSFFFFLFLFLFHLRFFPLTFVPFFIPCLLLLSSSLLLCCVVWYLFMRLFS | 46700 |
| RWGLGRWWVPFQLFVIFWDLDNWPVFGLRPWVFEFMEGPLEYVLSFLVLFTAK | 67500 |
| PILLILLLLHVGFFGGYYFVICLGGLFDVCLSQLLVYKWQSFGFYWRIVVFLW | 78100 |
